Key:
[1] = biological target: T1, recombinant human CD25 extracellular protein sequence (rhCD25) (human, UniProt P01589 22-240); assay: ForteBio BLI; format not given; upper end of the stated Kd range
T1 construct: also called human CD25 antigen; target antigen
T1 sequence: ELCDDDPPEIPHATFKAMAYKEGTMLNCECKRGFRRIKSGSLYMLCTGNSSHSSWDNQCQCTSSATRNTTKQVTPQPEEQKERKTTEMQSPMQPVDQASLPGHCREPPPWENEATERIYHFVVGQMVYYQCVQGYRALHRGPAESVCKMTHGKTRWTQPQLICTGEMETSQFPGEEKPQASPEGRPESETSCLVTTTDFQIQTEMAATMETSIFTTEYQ

[2] = biological target: T1, recombinant human CD25 extracellular …; assay: ForteBio BLI; format not given; lower end of the stated Kd range
[3] = biological target: T2, recombinant human CD25 his tagged (human, UniProt P01589 22-240, limits assumed); assay: ForteBio BLI, avidity format: rhCD25-His on Ni-NTA sensor, IgG in solution, 1:1 fit
T2 construct: Loaded on Ni-NTA sensors at 20.83 nM; also called rhCD25-his; not shown: His tag
T2 sequence: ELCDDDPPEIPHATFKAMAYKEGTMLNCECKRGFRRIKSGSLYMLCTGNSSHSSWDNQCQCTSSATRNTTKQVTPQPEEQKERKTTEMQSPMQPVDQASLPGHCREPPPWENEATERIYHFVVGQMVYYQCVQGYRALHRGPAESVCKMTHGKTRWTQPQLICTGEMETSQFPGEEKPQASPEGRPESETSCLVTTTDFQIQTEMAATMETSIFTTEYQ

[4] = biological target: T3, human CD25 expressed on cells (human, UniProt P01589 22-272); assay: flow cytometry on human in vitro differentiated Treg cells, Alexa Fluor 647 anti-human IgG secondary
T3 sequence: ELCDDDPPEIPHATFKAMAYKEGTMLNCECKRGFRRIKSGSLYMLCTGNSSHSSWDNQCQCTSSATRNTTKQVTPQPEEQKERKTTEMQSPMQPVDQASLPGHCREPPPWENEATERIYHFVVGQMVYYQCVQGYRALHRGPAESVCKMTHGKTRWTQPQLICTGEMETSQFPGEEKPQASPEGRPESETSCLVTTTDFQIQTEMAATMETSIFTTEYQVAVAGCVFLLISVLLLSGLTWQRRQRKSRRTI
Description: Binding to CD25 expressing in vitro differentiated Tregs was examined by staining test articles (anti-CD25 primary antibodies) with 30 μg/ml antibodies followed by semi-log dilution series (7-point) for 30 minutes on ice. […] All samples were stained in duplicates. Live cells were gated using FSC vs SSC parameters by flow cytometry during sample acquisition. Mean fluorescence intensity (MFI) of stained cells were plotted on an XY chart, graphing MFI against the log of the concentration, and the data fit to a non-linear regression curve from which the EC50 is calculated.

[5] = biological target: T4, human CD25 antigen, R&D Systems cat no. 223-2A/CF (human, UniProt P01589 22-213, limits assumed); assay: SPR Biacore T200, antibody captured by anti-human Fab, CD25 in solution, Two State Reaction fit; column head 'Binding strength'
T4 construct: Bought protein; also called R&D Systems (~10% dimer)
T4 sequence: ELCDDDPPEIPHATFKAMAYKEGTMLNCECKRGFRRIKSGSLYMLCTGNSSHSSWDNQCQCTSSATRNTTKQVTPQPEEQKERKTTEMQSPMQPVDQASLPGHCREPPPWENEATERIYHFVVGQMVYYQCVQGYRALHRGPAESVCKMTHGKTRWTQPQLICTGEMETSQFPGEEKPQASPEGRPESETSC
Description: (§1) Binding of CD25 antibodies to human CD25 antigen was investigated by surface plasmon resonance using a BIACORE T200 instrument (GE Healthcare).
(§2) The flow cell was set to 25° C. and the sample compartment to 12° C. The CD25 antibody was captured by injecting a 3 μg/ml solution for 60 sec at a flow rate of 10 μl/min. Association of CD25 antigen was measured by injection of human CD25 solutions for 180 sec at a flow rate of 30 μl/min starting with a concentration of 1000 nM down to 1 nM in 1:10 dilution steps. The dissociation phase was triggered by switching from sample solution injection to running buffer and monitored for up to 600 seconds. The surface was regenerated by washing with two consecutive 1-minute injections of 10mM glycine pH 2.1 (provided by the kit) at a flow rate of 10 μl/min. Bulk refractive index differences were corrected by subtracting the response obtained from an anti-human Fab reference surface; blank injections are also subtracted (=double referencing).
(§3) For calculation of KD and kinetic parameters Biacore provided fitting models were used to obtain optimal curve fitting results. The 1:1 Langmuir fit was used for P1AA5872 and the Two State Kinetic fitting for CD25 from Sino Biologicals and R&D Systems.

[6] = biological target: T3, human CD25 expressed on cells; assay: flow cytometry on CD3/CD28 bead activated human Pan T cells, gated on CD8+ T cells
Description: (§4) Binding to CD25 expressing activated human and Cynomolgus monkey PMBC was examined by staining test articles (anti-CD25 primary antibodies) with 20 μg/ml antibodies followed by semi-log dilution series (7-point) for 30 minutes on ice. This was followed by staining with a secondary antibody (rabbit anti-human Fcg F(ab′)2- (Jackson ImmunoResearch)) concentration of 5 μg/ml for 30 minutes on ice. All samples were stained in triplicates. To minimize cross-linking induced cell death mediated by binding of the secondary antibody, cell lines were examined in staining cohorts of 4 test articles at a time. Live lymphocytes were gated using FSC vs SSC parameters by flow cytometry during sample acquisition. Mean fluorescence intensity (MFI) of gated CD4⁺ and CD8⁺ T cell subsets were plotted on an XY chart, graphing MFI against the log of the concentration, and the data fit to a non-linear regression curve from which the EC50 was calculated.

[7] = biological target: T3, human CD25 expressed on cells; assay: flow cytometry on CD3/CD28 bead activated human Pan T cells, gated on CD4+ T cells
Description: as §4

[8] = biological target: T5, inhouse produced monomeric CD25 antigen (P1AA5872) (human, UniProt P01589 22-240, limits assumed); assay: SPR Biacore T200, antibody captured by anti-human Fab, monomeric CD25 in solution, 1:1 Langmuir fit; column head 'Binding strength'
T5 construct: also called Inhouse (0% dimer)
T5 sequence: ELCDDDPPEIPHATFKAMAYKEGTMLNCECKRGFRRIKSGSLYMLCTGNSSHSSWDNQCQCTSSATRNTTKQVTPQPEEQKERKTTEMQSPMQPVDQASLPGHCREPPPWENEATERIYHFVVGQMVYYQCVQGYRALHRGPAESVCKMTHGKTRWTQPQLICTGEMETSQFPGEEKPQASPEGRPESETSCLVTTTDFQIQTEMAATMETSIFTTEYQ
Description: as §1, §2, §3

[9] = biological target: T6, human CD25 antigen, Sino Biologicals cat no. 10165-H08H (human, UniProt P01589 22-213); assay: SPR Biacore T200, antibody captured by anti-human Fab, CD25 in solution, Two State Reaction fit; column head 'Binding strength'; Sino Biologicals CD25, ~20% dimer; Two State Reaction fit
T6 construct: Bought protein; also called Sino biological (~20% dimer)
T6 sequence: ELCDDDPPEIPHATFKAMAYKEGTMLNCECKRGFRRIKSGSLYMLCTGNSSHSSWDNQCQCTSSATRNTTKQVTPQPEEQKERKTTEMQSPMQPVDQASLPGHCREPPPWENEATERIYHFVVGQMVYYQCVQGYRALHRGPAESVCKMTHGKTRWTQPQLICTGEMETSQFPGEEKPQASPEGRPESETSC
Description: as §1, §2, §3

B1: aCD25-a-674 (antibody, V domains shown)
VH: QVQLVQSGAEVKKPGASVKVSCKASGYTFTSYYMHWVRQAPGQGLEWMGIINPSGGSTSYAQKFQGRVTMTRDTSTSTVYMELSSLRSEDTAVYYCARGGAEYIPAEYFQHWGQGTLVTVSS
VL: EIVMTQSPATLSLSPGERATLSCRASQSVSSYLAWYQQKPGQAPRLLIYDASNRATGIPARFSGSGSGTDFTLTISSLEPEDFAVYYCQQRPFLPTFGGGTKVEIK
notes: not shown: human IgG1 heavy chain constant region, P01857; human kappa light chain constant region, P01834
- Kd [1]: ≤ 10 nM
- Kd [2]: ≥ 0.1 nM
- Kd [3]: 2.12 nM
- EC50 (read off the curve) [4]: ~2 µg/mL
- Kd [5]: 48 nM
- EC50 (read off the curve) [6]: ~1 µg/mL
- EC50 (read off the curve) [7]: ~0.9 µg/mL
- Kd [8]: 517 nM
- Kd [9]: 40 nM

— patent US20210009704A1 (TUSK THERAPEUTICS, published 2021)
